Legend:
Assay in all cases: ELISA
cyno TIGIT IgV domain = biological target: cyno TIGIT IgV domain
[1] = biological target: T1, recombinant human TIGIT IgV domain (UniProt Q495A1 22-141)
T1 chain: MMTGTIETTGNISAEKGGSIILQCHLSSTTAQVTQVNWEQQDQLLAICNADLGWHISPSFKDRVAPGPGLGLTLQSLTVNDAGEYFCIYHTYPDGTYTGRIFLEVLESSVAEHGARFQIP

[2] = biological target: T2, recombinant mouse TIGIT IgV domain (UniProt P86176 29-145)
T2 chain: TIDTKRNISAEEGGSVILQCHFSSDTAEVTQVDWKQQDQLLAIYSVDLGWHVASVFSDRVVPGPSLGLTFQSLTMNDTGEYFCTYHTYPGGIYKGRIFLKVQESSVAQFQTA

Sequence of cyno TIGIT IgV domain (Q495A1 other isoform, or with tags, fused parts or gaps): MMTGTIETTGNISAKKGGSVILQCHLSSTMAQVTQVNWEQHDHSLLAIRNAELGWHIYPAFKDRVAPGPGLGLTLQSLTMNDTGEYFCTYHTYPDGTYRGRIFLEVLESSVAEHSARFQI

B1: 7D4 (antibody, V domains shown)
VH: QVQLKHSGAELVRPGTSVKMSCKASGYTFTNYWIGWAKQRPGHGLEWIGDIYPGSSFTNSNEKFKGKATLTADKSSSTAYMQFSSLTSEDSAIYYCAKLGRGYWYFDVWGTGTSVTVSA
VL: DIVLTQSPAIMSASLGEEITLTCSASSSVSYIHWYQQKSGTSPKLLIYTTSNLASGVPSRFSGSGSGTFYSLTISSVEAEDAADYYCHQWSRYPTFGGGTKLEIK
Cyno TIGIT IgV domain
  EC50: 21.3 nM
[1]
  EC50: 0.13 nM

B2: 3A9 (antibody, V domains shown)
VH: QVQLQQPGAELVRPGSSVKLSCKASGYTFTSYWMHWVKQRPIQGLEWIGNIDPSDSATHYNQKFKDKATLTVDKSSSTAYMHLSSLTSEDSAVYYCARTGIDYGSSYFDYWGQGTILTVSS
VL: DIVLTQSPASLAVSLGQRATISCRASQSVSTSSYSYIHWYQQKPGQPPKLLIKYASNLESGVPARFSGSGSGTDFTLNIHPVEEEDTATYYCQHNWEIPRTFGGGTKLEIK
Cyno TIGIT IgV domain
  EC50: 4.46 nM
[2]
  EC50: 172 nM
[1]
  EC50: 0.38 nM

B3: 2C9 (antibody, V domains shown)
VH: DIQLKQSGAELVRPGASVKLSCKASGYTFTDSYINWVKQRPGQGLEWIARFYPGSGNTYYNEKFKGKATLTAEKSSSTAYMQLSSLTSEDSAVYFCAREAWLLFYGMDYWGQGTTVTVSS
VL: DIVLTQSPAIMSASPGEKVTISCSANSSVSYMYWYQQKPGSSPKPWIYRTSNLASGVPARFSGSGSGTSYSLTISSMEAEDAATYYCQQYHSYPLTFGAGTKLELK
Cyno TIGIT IgV domain
  EC50: 69.9 nM
[2]
  EC50: 138 nM
[1]
  EC50: 0.23 nM

Source: patent US20230416362A1 (published 2023)
